B1: ClfAPWY (other)
chain: VAADAPAAGTDITNQLTNVTVGIDSGTTVYPHQAGYVKLNYGFSVPNSAVKGDTFKITVPKELNLNGVTSTAKVPPIMAGDQVLANGVIDSDGNVIYTFTDYVNTKDDVKATLTMPAYIDPENVKKTGNVTLATGIGSTTANKTVLVDYEKYGKFYNLSIKGTIDQIDKTNNTYRQTIYVNPSGDNVIAPVLTGNLKPNTDSNALIDQQNTSIKVYKVDNAADLSESYFVNPENFEDVTNSVNITFANPNQYKVEFNTPDDQITTPYIVVVNGHIDPNSKGDLALRSTLYGANSNIIARSMSWDNEVAFNNGSGSGDGIDKPVVPEQPDEPGEIEPIPE
notes: also called triple mutant
B2: Fg γ-peptide P16 (peptide)
peptide: GEGQQHHLGGAKQAGAV
notes: domain: γ-peptide; Position 410 probably counts on the mature γ-chain; also called P16 peptide; Fg-γ P16 peptide

Key:
human fibrinogen [1] = biological target: T1, human fibrinogen (human, UniProt P02671 20-629; P02675 31-491; P02679 27-437); assay: SPR; immobilized Fg; estimated; SPR, Fg, estimated, data not shown
T1 construct: also called Fg; intact Fg
T1 sequence 1: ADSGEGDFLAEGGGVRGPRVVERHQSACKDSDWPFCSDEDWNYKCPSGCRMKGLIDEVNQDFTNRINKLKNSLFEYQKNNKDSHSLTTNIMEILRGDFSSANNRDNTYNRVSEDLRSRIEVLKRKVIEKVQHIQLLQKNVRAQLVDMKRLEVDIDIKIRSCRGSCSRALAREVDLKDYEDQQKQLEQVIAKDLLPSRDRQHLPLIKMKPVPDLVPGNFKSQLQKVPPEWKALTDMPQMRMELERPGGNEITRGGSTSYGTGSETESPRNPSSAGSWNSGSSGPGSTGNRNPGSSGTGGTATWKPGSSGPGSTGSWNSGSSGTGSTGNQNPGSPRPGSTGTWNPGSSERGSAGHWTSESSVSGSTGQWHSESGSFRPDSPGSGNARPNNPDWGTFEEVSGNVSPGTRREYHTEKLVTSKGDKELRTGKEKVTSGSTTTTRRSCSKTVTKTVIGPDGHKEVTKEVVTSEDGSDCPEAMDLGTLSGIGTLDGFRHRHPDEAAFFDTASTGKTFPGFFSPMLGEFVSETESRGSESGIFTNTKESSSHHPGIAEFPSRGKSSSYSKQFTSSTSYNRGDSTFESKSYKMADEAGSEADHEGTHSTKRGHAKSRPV
T1 sequence 2: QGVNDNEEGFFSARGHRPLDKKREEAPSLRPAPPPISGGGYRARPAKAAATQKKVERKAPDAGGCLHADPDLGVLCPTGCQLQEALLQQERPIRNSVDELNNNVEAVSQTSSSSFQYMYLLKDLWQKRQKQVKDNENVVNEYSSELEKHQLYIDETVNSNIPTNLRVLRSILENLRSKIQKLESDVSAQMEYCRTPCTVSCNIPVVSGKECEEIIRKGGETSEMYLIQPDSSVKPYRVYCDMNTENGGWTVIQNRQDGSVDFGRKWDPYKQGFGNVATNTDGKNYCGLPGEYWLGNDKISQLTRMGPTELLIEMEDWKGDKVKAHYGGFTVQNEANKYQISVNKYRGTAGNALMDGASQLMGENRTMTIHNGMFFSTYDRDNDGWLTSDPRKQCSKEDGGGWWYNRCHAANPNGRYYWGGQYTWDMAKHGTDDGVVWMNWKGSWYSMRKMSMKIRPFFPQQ
T1 sequence 3: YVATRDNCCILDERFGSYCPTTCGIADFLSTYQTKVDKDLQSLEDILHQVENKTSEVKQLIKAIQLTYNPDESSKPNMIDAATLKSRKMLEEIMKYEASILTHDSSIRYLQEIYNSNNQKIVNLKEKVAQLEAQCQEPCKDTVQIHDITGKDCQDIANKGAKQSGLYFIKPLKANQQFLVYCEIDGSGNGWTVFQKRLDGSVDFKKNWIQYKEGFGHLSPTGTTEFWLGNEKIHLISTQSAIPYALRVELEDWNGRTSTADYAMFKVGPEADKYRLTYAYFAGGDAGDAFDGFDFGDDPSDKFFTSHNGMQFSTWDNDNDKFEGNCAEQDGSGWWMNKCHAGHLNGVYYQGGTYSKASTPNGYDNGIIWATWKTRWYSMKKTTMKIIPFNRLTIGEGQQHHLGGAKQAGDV

Fg γ-peptide P16 [2] = biological target: B2; assay: ITC, 0.5 mM P16 peptide injected into 30 µM ClfAPWY; OneSites fit box
Fg D-fragment [3] = biological target: T2, Fg D-fragment (UniProt P02671 130-216; P02675 164-491; P02679 114-437); assay: SPR; immobilized D-fragment; estimated; SPR, D-fragment, estimated, data not shown
T2 construct: domain: D-fragment; also called D-domain
T2 sequence 1: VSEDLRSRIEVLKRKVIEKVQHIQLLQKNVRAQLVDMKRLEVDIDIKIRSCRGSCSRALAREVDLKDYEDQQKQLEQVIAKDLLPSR
T2 sequence 2: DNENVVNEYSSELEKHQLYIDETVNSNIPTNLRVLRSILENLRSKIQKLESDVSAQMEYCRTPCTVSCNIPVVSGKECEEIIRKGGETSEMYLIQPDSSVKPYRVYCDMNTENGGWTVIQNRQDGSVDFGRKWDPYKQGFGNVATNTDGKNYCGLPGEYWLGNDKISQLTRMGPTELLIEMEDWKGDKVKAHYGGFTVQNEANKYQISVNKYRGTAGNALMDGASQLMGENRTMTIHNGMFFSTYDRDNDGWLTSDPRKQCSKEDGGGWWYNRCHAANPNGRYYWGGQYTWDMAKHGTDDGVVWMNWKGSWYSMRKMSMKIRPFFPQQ
T2 sequence 3: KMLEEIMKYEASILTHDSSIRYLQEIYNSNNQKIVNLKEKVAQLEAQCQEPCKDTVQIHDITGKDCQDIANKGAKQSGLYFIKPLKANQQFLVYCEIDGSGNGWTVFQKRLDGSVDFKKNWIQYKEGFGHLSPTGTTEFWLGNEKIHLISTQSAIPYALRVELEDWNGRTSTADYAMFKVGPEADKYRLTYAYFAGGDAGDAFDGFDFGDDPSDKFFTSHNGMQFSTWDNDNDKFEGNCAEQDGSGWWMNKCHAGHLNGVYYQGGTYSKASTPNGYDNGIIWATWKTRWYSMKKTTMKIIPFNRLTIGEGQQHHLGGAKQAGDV

Fg γ-peptide P16 [4] = biological target: B2; assay: ITC, 0.5 mM P16 peptide injected into 30 µM ClfAPWY; OneSites fit box, unit not given
ClfAPWY = biological target: B1; assay: ITC; 0.5 mM P16 injected into 30 µM ClfAPWY, 30 °C; ITC, P16 peptide
ClfACC [5] = biological target: T3, ClfACC (S. aureus, UniProt Q53653 229-545, engineered disulfide bond between C327 and C541); assay: ITC, peptide titrated into ClfACC (paragraph 56 gives this KD as '9' without a unit and calls the peptide a synthetic C-terminal γ-chain peptide; the sheet names it P16)
T3 construct: also called disulfide bond-closed ClfACC; closed form of ClfA N2N3
T3 sequence: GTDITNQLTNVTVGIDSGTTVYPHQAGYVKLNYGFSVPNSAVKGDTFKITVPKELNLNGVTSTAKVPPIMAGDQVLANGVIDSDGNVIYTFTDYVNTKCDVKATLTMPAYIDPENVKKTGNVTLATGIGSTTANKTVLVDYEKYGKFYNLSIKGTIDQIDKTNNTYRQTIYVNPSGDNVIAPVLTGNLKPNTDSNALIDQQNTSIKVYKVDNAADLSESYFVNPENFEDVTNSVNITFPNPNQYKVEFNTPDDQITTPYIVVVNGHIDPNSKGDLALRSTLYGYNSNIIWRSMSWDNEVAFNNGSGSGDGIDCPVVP

human fibrinogen [6] = biological target: T1, human fibrinogen; assay: SPR; immobilized Fg against γ-peptide
Fg D-fragment [7] = biological target: T2, Fg D-fragment; assay: SPR; immobilized Fg D-fragment against γ-peptide
human fibrinogen [8] = biological target: T1, human fibrinogen; assay: SPR (Biacore), drawn table Ligand/analyte: fibrinogen immobilized, ClfA N3 domain (ClfA370-559) as analyte
Fg D-fragment [9] = biological target: T2, Fg D-fragment; assay: SPR (Biacore), drawn table Ligand/analyte: Fg D-fragment immobilized, ClfA N3 domain (ClfA370-559) as analyte
ClfACC [10] = biological target: T3, ClfACC; assay: ITC; peptide titrated into a cell containing ClfACC; the unit is missing in the print; γ-chain peptide titrated into ClfACC

**Q.** How did the Kd (human fibrinogen [1]) turn out when B1 was run?
**A.** 10 µM

**Q.** And the N (Fg γ-peptide P16 [2])?
**A.** 1.23

**Q.** And the Kd (Fg D-fragment [3])?
**A.** 17 µM

**Q.** What about the ΔH (Fg γ-peptide P16 [4]) of the same binder?
**A.** -6790

**Q.** And the ΔS (Fg γ-peptide P16 [4])?
**A.** 1.59

**Q.** For B2, which Kd (ClfAPWY) is on record?
**A.** ~5.8 µM

**Q.** What about the Kd (ClfACC [5]) of the same binder?
**A.** 9 µM

B3: ClfA370-559 (other)
chain: EKYGKFYNLSIKGTIDQIDKTNNTYRQTIYVNPSGDNVIAPVLTGNLKPNTDSNALIDQQNTSIKVYKVDNAADLSESYFVNPENFEDVTNSVNITFPNPNQYKVEFNTPDDQITTPYIVVVNGHIDPNSKGDLALRSTLYGYNSNIIWRSMSWDNEVAFNNGSGSGDGIDKPVVPEQPDEPGEIEPIPE
notes: also called recombinant form of N3
**Q.** For B3, which “fold lower KD than for the γ-peptide” value (human fibrinogen [6]) is on record?
**A.** ~10 fold

**Q.** And the “fold lower KD than for the γ-peptide” value (Fg D-fragment [7])?
**A.** ~10 fold

**Q.** What about the Kd (human fibrinogen [8]) of the same binder?
**A.** 5.9 µM

**Q.** What about the Kd (Fg D-fragment [9]) of the same binder?
**A.** 6.9 µM

B4: synthetic C-terminal γ-chain peptide (peptide)
peptide: GEGQQHHLGGAKQAGDV
notes: domain: C-terminal γ-chain peptide; also called Fg γ-peptide; synthetic Fg γ-peptide
**Q.** With B4 as the binder, how does the Kd (ClfACC [10]) read?
**A.** 9 µM
